Reference: patent publication US20060115475A1 (published 2006)

How the values were obtained:
[1] = target: T1, Human hexa-histidine-TLR3 (human, UniProt O15455 24-703, limits assumed); assay: Biacore 3000, hexa-histidine-TLR3 captured on anti-His antibody, mAb in solution, 25 C, 1:1 model
T1 construct: Captured by anti-His antibody on a CM5 chip; also called TLR3 (captured on the chip surface); not shown: hexa-histidine tag

[2] = target: T2, soluble human TLR3 extracellular domain (human, UniProt O15455 24-703); assay: ELISA, coated soluble hTLR3 extracellular domain, HRP-labeled anti-human IgG
T2 construct: also called hTLR3 extracellular domain; extracellular domain of human TLR3

[3] = target: T2, soluble human TLR3 extracellular domain; assay: Biacore 2000, mAb captured on protein A, TLR3 in solution, 25 C, 1:1 model
Method: Measurement of binding affinity by Biacore was performed by mAb capture and TLR3 capture techniques. MAb capture analysis was performed at 25° C. using a Biacore 2000 biosensor equipped with a CM5 chip with surfaces modified with protein A (6,000 RU) at 25° C. by standard amine coupling. Antibody was diluted to 30 nM and captured for one minute on different protein A surfaces. TLR3 was injected at 0, 0.1, 0.3, 1.0, 3.0, and 9.0 nM and associations and dissociations were monitored for 5 minutes. The protein A modified surfaces were regenerated using two 6-second pulses 100 mM phosphoric acid. Available binding data sets were fit to a 1:1 interaction model (CLAMP™). The rate constants and their ratio (KD=kd/kₐ) and the error of fit carried over the estimate of the apparent equilibrium constants were calculated.

[4] = target: T2, soluble human TLR3 extracellular domain; assay: ELISA, TLR3 binding assay as in Example 20

Kd [1] [nM] | EC50 [2] [mg/L] | Kd [3] [nM] | EC50 [4] [mg/L] | Binder
90 | 0.289 | 7.2 | – | human-adapted anti-TLR3 mAb HV1/LV7 (antibody, human IgG4, V domains shown, Human IgG4 (S228P, F234A, L235A), kappa; not shown: human kappa light chain constant region) VH: QVQLVQSGAEVKKPGASVKVSCKASGYTFTTYWIHWVRQAPGQRLEWMGEINPNNGRINYNEKFKTRVTITRDTSASTAYMELSSLRSEDTAVYYCARVGVMITTFPYWGQGTLVTVSS VL: DIQMTQSPSSLSASVGDRVTITCRASGNIHNYLAWFQQKPGKAPKSLIYNAKTLADGVPSRFSGSGSGTDFTLTISSLQPEDFATYYCQHFWSTPFTFGQGTKLEIK
– | 0.0289 | – | – | human-adapted anti-TLR3 mAb HV5/LV3 (antibody, human IgG4, V domains shown, Human IgG4 (S228P, F234A, L235A), kappa; not shown: human kappa light chain constant region) VH: QVQLVQSGAEVKKPGASVKVSCKASGYTFTTYWIHWVRQATGQGLEWMGEINPNNGRINYNEKFKTRVTMTRNTSISTAYMELSSLRSEDTAVYYCARVGVMITTFPYWGQGTLVTVSS VL: DIQMTQSPSSLSASVGDRVTITCRASGNIHNYLAWYQQKPGKAPKRLIYNAKTLADGVPSRFSGSGSGTEFTLTISSLQPEDFATYYCQHFWSTPFTFGQGTKLEIK
– | 1.47 | – | – | human-adapted anti-TLR3 mAb HV7/LV1 (antibody, human IgG4, V domains shown, Human IgG4 (S228P, F234A, L235A), kappa; not shown: human kappa light chain constant region) VH: QVQLVQSGAEVKKPGSSVKVSCKASGGTFSTYWIHWVRQAPGQGLEWMGEINPNNGRINYNEKFKTRVTITADESTSTAYMELSSLRSEDTAVYYCARVGVMITTFPYWGRGTLVTVSS VL: DIQMTQSPSSLSASVGDRVTITCRASGNIHNYLAWYQQKPGKAPKLLIYNAKTLADGVPSRFSGSGSGTDFTLTISSLQPEDFATYYCQHFWSTPFTFGQGTKLEIK
– | 0.0786 | – | – | human-adapted anti-TLR3 mAb HV5/LV7 (antibody, human IgG4, V domains shown, Human IgG4 (S228P, F234A, L235A), kappa; not shown: human kappa light chain constant region) VH: QVQLVQSGAEVKKPGASVKVSCKASGYTFTTYWIHWVRQATGQGLEWMGEINPNNGRINYNEKFKTRVTMTRNTSISTAYMELSSLRSEDTAVYYCARVGVMITTFPYWGQGTLVTVSS VL: DIQMTQSPSSLSASVGDRVTITCRASGNIHNYLAWFQQKPGKAPKSLIYNAKTLADGVPSRFSGSGSGTDFTLTISSLQPEDFATYYCQHFWSTPFTFGQGTKLEIK
– | – | – | 0.0146 | human-adapted C1068 variant mAb HBV2 (Vh CDR2 Y60G in the HV1/LV1 background) (antibody, V domains shown, Made in the HV1/LV1 background; not shown: human kappa light chain constant region) VH: QVQLVQSGAEVKKPGASVKVSCKASGYTFTTYWIHWVRQAPGQRLEWMGEINPNNGRINGNEKFKTRVTITRDTSASTAYMELSSLRSEDTAVYYCARVGVMITTFPYWGQGTLVTVSS VL: DIQMTQSPSSLSASVGDRVTITCRASGNIHNYLAWYQQKPGKAPKLLIYNAKTLADGVPSRFSGSGSGTDFTLTISSLQPEDFATYYCQHFWSTPFTFGQGTKLEIK
– | 1.82 | – | – | human-adapted anti-TLR3 mAb HV7/LV5 (antibody, human IgG4, V domains shown, Human IgG4 (S228P, F234A, L235A), kappa; not shown: human kappa light chain constant region) VH: QVQLVQSGAEVKKPGSSVKVSCKASGGTFSTYWIHWVRQAPGQGLEWMGEINPNNGRINYNEKFKTRVTITADESTSTAYMELSSLRSEDTAVYYCARVGVMITTFPYWGRGTLVTVSS VL: DIQMTQSPSSLSASVGDRVTITCRASGNIHNYLAWYQQKPGKVPKLLIYNAKTLADGVPSRFSGSGSGTDFTLTISSLQPEDVATYYCQHFWSTPFTFGGGTKVEIK
– | 4.26 | – | – | human-adapted anti-TLR3 mAb HV7/LV7 (antibody, human IgG4, V domains shown, Human IgG4 (S228P, F234A, L235A), kappa; not shown: human kappa light chain constant region) VH: QVQLVQSGAEVKKPGSSVKVSCKASGGTFSTYWIHWVRQAPGQGLEWMGEINPNNGRINYNEKFKTRVTITADESTSTAYMELSSLRSEDTAVYYCARVGVMITTFPYWGRGTLVTVSS VL: DIQMTQSPSSLSASVGDRVTITCRASGNIHNYLAWFQQKPGKAPKSLIYNAKTLADGVPSRFSGSGSGTDFTLTISSLQPEDFATYYCQHFWSTPFTFGQGTKLEIK
3.4 | 0.0602 | 0.5 | – | human-adapted anti-TLR3 mAb HV4/LV3 (antibody, human IgG4, V domains shown, Human IgG4 (S228P, F234A, L235A), kappa; not shown: human kappa light chain constant region) VH: QVQLVQSGAEVKKPGASVKVSCKASGYTFTTYWIHWVRQAPGQGLEWMGEINPNNGRINYNEKFKTRVTMTRDTSISTAYMELSRLRSDDTAVYYCARVGVMITTFPYWGQGTLVTVSS VL: DIQMTQSPSSLSASVGDRVTITCRASGNIHNYLAWYQQKPGKAPKRLIYNAKTLADGVPSRFSGSGSGTEFTLTISSLQPEDFATYYCQHFWSTPFTFGQGTKLEIK
– | 0.183 | – | – | human-adapted anti-TLR3 mAb HV4/LV7 (antibody, human IgG4, V domains shown, Human IgG4 (S228P, F234A, L235A), kappa; not shown: human kappa light chain constant region) VH: QVQLVQSGAEVKKPGASVKVSCKASGYTFTTYWIHWVRQAPGQGLEWMGEINPNNGRINYNEKFKTRVTMTRDTSISTAYMELSRLRSDDTAVYYCARVGVMITTFPYWGQGTLVTVSS VL: DIQMTQSPSSLSASVGDRVTITCRASGNIHNYLAWFQQKPGKAPKSLIYNAKTLADGVPSRFSGSGSGTDFTLTISSLQPEDFATYYCQHFWSTPFTFGQGTKLEIK
– | – | – | 0.017 | human-adapted C1068 variant mAb HBV1 (Vh CDR1 I34M in the HV1/LV1 background) (antibody, V domains shown, Made in the HV1/LV1 background and generated 'as described above'; not shown: human kappa light chain constant region) VH: QVQLVQSGAEVKKPGASVKVSCKASGYTFTTYWMHWVRQAPGQRLEWMGEINPNNGRINYNEKFKTRVTITRDTSASTAYMELSSLRSEDTAVYYCARVGVMITTFPYWGQGTLVTVSS VL: DIQMTQSPSSLSASVGDRVTITCRASGNIHNYLAWYQQKPGKAPKLLIYNAKTLADGVPSRFSGSGSGTDFTLTISSLQPEDFATYYCQHFWSTPFTFGQGTKLEIK
